A short description of the series: yeast display, Sf9 membrane polyspecificity reagent, FACS + sequencing; frameworks hold sequencing errors. The procedure, abridged: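 Polyreactivity labels are assigned by the sorting gate from which each nanobody was recovered. The gates were low and high (top ~1%), set on anti-HA fluorescence for expression and streptavidin fluorescence for reagent binding. Before sorting, galactose-induced (36–48 hours) yeast display cells were stained for 1 hour at 4 °C with 10% biotinylated, detergent-solubilized Sf9 membrane reagent.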
For “QVHLVESGGGLVQAGGSLRLSCAASGITFDLYAMGWYRQAPGKERELVAASTYYADSVKGRFTISRDNAKNTVYLQMNSLKPEDTAVYYCNTREPVTYDYWGQGTQVTVSS”, the “polyreactivity (PSR sort gate)” value is given as “high polyreactivity”.
Under “QVHLVESGGGLVQAGGSLRLSCAASGITFRRNAMGWYRQAPGKERELVARITVSGGTTYYADSVKGRFTISRDYAKNTVYLQMNSLKPEDTAVYYCAKVWHSSRVSPYDYWGQGTQVTVSS” stands “low polyreactivity”.
To “QVHLVESGGGLVQAGGSLRLSCAASGITFTRYNMGWYRQAPGKERELVASIRRSGSTNYADSVKGRFTISRDNAKNTVYLQMNSLKPEDTAVFYCAAVNYGYPKPYDYWGQGTQVTVSS” belongs “high polyreactivity”; to “QVHLVESGGGLVQAGGSLRLSCAASGLIFGDYAMGWYRQAPGKERELVAAITGSVTRRYYADSVKGRFTISRDNAKNTVYLQMNSLKPEDTAVYYCATVGYPYTLWHQMDYWGQGTQVTVSS”, “low polyreactivity”.
To “QVHLVESGGGLVQAGGSLRLSCAASGLIFNIYAMGWYRQAPGKERELVAAISKSGGSTYYADSVKGRFTISRDNAKNTVYLQMNSLKPEDTAVYYCAVVRNSYRVLRLNYWGQGTQVTVSS” belongs “high polyreactivity”; to “QVHLVESGGGLVQAGGSLRLSCAASGLIFRRYAMGWYRQAPGKERELVAVISSGGRTYYADSVKGRFTISRDNAKNTVYLQMNSLKPEDTAVYYCAARTRSYWGTYGSYHYDYWGQGTQVTVSS”, “high polyreactivity”.
“QVHLVESGGGLVQAGGSLRLSCAASGLIFSDYAMGWYRQAPGKERELVAAIRSGGRTYYADSVKGRFTISRDNAKNTVYLQMNSLKPEDTAVYYCNKLYRRSPVPREYDYWGQGTQVTVSS”: the “polyreactivity (PSR sort gate)” value was “high polyreactivity”.
To “QVHLVESGGGLVQAGGSLRLSCAASGLILSYNAMAWYRQAPGKERELDAAISYSGGSTYYADSVKGRFTITRDNAKNTVYLQMNSLITEDSAVYYCAAVWRRQGSAYLGSYGYDYWGQVTQVTVSS” belongs “high polyreactivity”; to “QVHLVESGGGLVQAGGSLRLSCAASGLTFHRYAMGWYRQAPGKERELVAAINYSGGRTYYADSVKGRFTISRDNAKNSVYLQMNCLKPEDTEVYYCAAPRASGYYWGQGTQGTVSS”, “high polyreactivity”.
Under “QVHLVESGGGLVQAGGSLRLSCAASGLTFWAYTLGWYRQAPGQERELVAAITSSGGRTYYADSVKGRFTISRDNAKNTVYLQMNSLKPEDTGVYYCNARIFRSPTPYDYWGQGTQVTVSS” stands “high polyreactivity”.
For “QVHLVESGGGLVQAGGSLRLSCAASGNTFQRYTMGWYRQAPGKERELVAAITWSGGNTYYADSVKGRFTISRDNEKNTVYLQMNSLKPEDTAVYYCNADYPTTAYDYWGQGTQVTVSS”, the “polyreactivity (PSR sort gate)” value is “low polyreactivity”.
To “QVHLVESGGGLVQAGGSLRLSCAASGRIFAGYGMGWYRQAPGKERELVAAISSGGSTYYADSVKGRFTISRDNAKNPVYLQINSLKPEDTAVYYCAADTYTYYDYMARYYYWGQGTQVTVSS” belongs “low polyreactivity”; to “QVHLVESGGGLVQAGGSLRLSCAASGRIFAYYTMGWNRQAPGKERELVARITKNGGSTYYAESVKGRFTISRDNAKNTVYLQMNSLKPEDTAVYYCNADSGYTGRRTRERYYYWGQGTQVTVSS”, “high polyreactivity”.
To “QVHLVESGGGLVQAGGSLRLSCAASGRIFGFYAMALYRQSPGKEREFVASISVRGASTYADSVKGRFTISRDNAKNTVYLQMNSLKPEDTAVYYCNAYGRVSKRYGYWGQGTQVTVSS” belongs “high polyreactivity”.
Under “QVHLVESGGGLVQAGGSLRLSCAASGRIFGVNAMGWYRQAPGKERELVAAITWSGGSTYYADSVKGRFTISRDNAKITVYLEMNSLKPEDTAVYYCAVEGQFDDGWAWYDYWGQGTQVTVSS” stands “high polyreactivity”; under “QVHLVESGGGLVQAGGSLRLSCAASGRIFGYYAMGWYRQAPGKERELVARISSSGGSTYYADSVKGRFTISRDNAKNTVYLQMNSLKPEDTAVYYCNTASNRYPGWRAEFDYWGQGTQVTVSS”, “low polyreactivity”.
With “QVHLVESGGGLVQAGGSLRLSCAASGRIFQRNVMGWYRQAPGKERELVASITGGGTTNYADSVKGRFTISRDNAKNTVYLQMNSLKPEDTAVYYCAKGYGASNDPGYVRKRYGYWGQGTQVTVSS”, the “polyreactivity (PSR sort gate)” value was “low polyreactivity”.
To “QVHLVESGGGLVQAGGSLRLSCAASGRIFTYYAMGWYRQAPGKERELVAAINSRGGRTYYADSVKGRFTISRDNAKNTVYLQMNSLKPEDTAVYYCNKAVYFAWGWGLRDYDYWGQGTQVTVSS” belongs “high polyreactivity”; to “QVHLVESGGGLVQAGGSLRLSCAASGRISHYNAMGWNRQAPGKERELVAAISSRGGSTYYADSVKGRFTISRDNAKNTVYLQMNSLKPEDTAVYFCAVRYWHWGKKITYDYWGQGTQVTVSS”, “high polyreactivity”; to “QVHLVESGGGLVQAGGSLRLSCAASGRISQNALGWYRQAPGKEREVVAAITFSGGSTYYADSVKGRFTISRDNATNTVYLQMNSLKPEDNAVYYCNVRLYTDGLKYDYWGQGTQVTVSS”, “low polyreactivity”.
Under “QVHLVESGGGLVQAGGSLRLSCAASGRIYAFYAMGWYRQAPGKERELVAAISSGGNTKYADSVKGRFTISRDNAKNTVYLQMNSLKPEYTAVFYCDARTPWYNKGDYWGLGTQVTVSS” stands “low polyreactivity”; under “QVHLVESGGGLVQAGGSLRLSCAASGRLFGVYVMGWYRQAPGKERELVAAISWSGSHTYYADSVKGRFTISRDNAKNTVYLQMNSLKPEDTEVYYCNADSYPDYTGPGLDWYDYWGQGTQVTVSS”, “low polyreactivity”; under “QVHLVESGGGLVQAGGSLRLSCAASGRNFDNKAMGWYRQAPGKERELVATLSRNGGSTYYADSVKGRFTISRDNAKNTVYLQINRLKRDDTAVYYCNKRTRFIPSFDYWGQGTQVTVSS”, “low polyreactivity”.
Under “QVHLVESGGGLVQAGGSLRLSCAASGRPFSKYTMGWDRQAPGKERELVAVISRSGTRTYYADSVKGRFTISRDNAKNTVYLQMNSLKPEDTAVYYCAAKDERRSFGMGYWGQGTQVTVSS” stands “high polyreactivity”; under “QVHLVESGGGLVQAGGSLRLSCAASGRTFANYAMGWYRQAPGKERELVAAISFSTVSTYYADSVKGRFTISRDNAKNTVYLQMNSLKPEDTAVYYCAARRLGYYRKVKELDYWGQGTQVTVSS”, “high polyreactivity”; under “QVHLVESGGGLVQAGGSLRLSCAASGRTFAYNTMGWYRQAPGKERELVAAISSDGSTNYADSVKGRFTISRDNAKNTVYLQMNSLKPEDTAVYYCAKGEGTGYSDTQVYEHDYWGQGTQVTVSS”, “low polyreactivity”.
With “QVHLVESGGGLVQAGGSLRLSCAASGRTFCYNAMGWYRPAPGKERELVAAITSSGGGTSYADSVKGRFTISRDNAMNTVYLQMNSLKPEDTAVSYCARVRRYPLRYNYWGQGTQLTVSS”, the “polyreactivity (PSR sort gate)” value was “high polyreactivity”.
Under “QVHLVESGGGLVQAGGSLRLSCAASGRTFDHNTMGWYRQAPGKERELVAAISWSGGTTYYADSVKGRFTISRDNAKNTVYLQMNSLKPEDTAVYYCAADRSPGSYGYQYDYWGQGTQVTVSS” stands “low polyreactivity”; under “QVHLVESGGGLVQAGGSLRLSCAASGRTFDVYAMGWYRQAPGKERELVATITDSGGNTYYADSVKGRFTISRDNAKNTVYLQMNSLKPEDTAVYYCAADRIYPYYRWSGAHRSDVDYWGQGTQVTVSS”, “low polyreactivity”.
“QVHLVESGGGLVQAGGSLRLSCAASGRTFENNAMGWYRPAPGKESELVAAITVSGGSTYYADSVKGRFTLSRDNAKNTVDLQMNSLKPEDTAVYYCAIVGFGIPGGFYYWGEGTQVTVSS”: the “polyreactivity (PSR sort gate)” value is recorded as “low polyreactivity”.
Take “QVHLVESGGGLVQAGGSLRLSCAASGRTFGYYAMGWYRQAPGKERELVAAITRTGGSTHYADSVKGRFTISRDNAKNTVYLQMNSLKPEDTAVYYCAADKRGTVYLSSFWMDYWGQGTQVTVSS”: the “polyreactivity (PSR sort gate)” value was “low polyreactivity”.
To “QVHLVESGGGLVQAGGSLRLSCAASGRTFPPYAMGGYRQAPGKERELVAAISIVGSTYYADSVKGRFTISRDNAKNTVYLQMNSLKPEDTAVYYCAADVAGYYKLYDYWGQGTQVTVSS” belongs “high polyreactivity”.
Under “QVHLVESGGGLVQAGGSLRLSCAASGRTFPYNAMGWYRQAPGKERELVDAISSGGSTNYADSVKGRFTISRDNAKNTVYLQMNSLKPEDTAVYYCATKYQRRPYRYSYWGQGTQVTVSS” stands “low polyreactivity”; under “QVHLVESGGGLVQAGGSLRLSCAASGRTFRRYAMGWYRQAPGKERELVAAISYNGGRTYYADSVKGRFTISRDNAKNSVYLQMNILKPEDTAVYYCNAERGFSDYWGQGTQVTVSS”, “high polyreactivity”; under “QVHLVESGGGLVQAGGSLRLSCAASGRTFVPYVMGWYRQAPGKERELVATINWSGGSTYYADSVKGLFTISRDNAKNTVYLQMNSLKPEDTAVYYCAARYYSDWFYYLFRYDYLGQGTQVTVSS”, “low polyreactivity”.
To “QVHLVESGGGLVQAGGSLRLSCAASGRTFVRYAMGWYRQAPGKERELVARITARGTSTYYADSVKGRFTISRDNAKNTVYLQMNRLKPEDTAVYYCNKVRTFRDKSRYDYWGQGTQVTVSS” belongs “low polyreactivity”; to “QVHLVESGGGLVQAGGSLRLSCAASGRTFWYYAMGWYRPAPGKERELVAAITRTGGSTYYADSVKGRFTISRDYAKNTVYLQMNSLKPEDTAVYYCARKYSYPVVAPSDYYWGQGTQVTVSS”, “high polyreactivity”; to “QVHLVESGGGLVQAGGSLRLSCAASGRTFYDNAMVWYRQAPGKERELVAAISKRGSSTYYADSVKGRFTISRYTAKNSVYLEMNSLKPEDTAVYYCAADSLLGWSVEYWGKGTQVTVSS”, “high polyreactivity”.
On to “QVHLVESGGGLVQAGGSLRLSCAASGRTFYGYDMGWYRQAPGKERELVATISSGGSTNYADSVKGRFTISRDYAKNTVYLQMNSLKPEDTAVYYCNADSYEYPSPYRYYYLGYDYWGQGTQVTVSS”, for which the “polyreactivity (PSR sort gate)” value is “low polyreactivity”.
To “QVHLVESGGGLVQAGGSLRLSCAASGRTFYSNAMGWYRQPPGKERELVAAINSGGDTYYADSVKGRFTISRDNAKNTVYLQMNSLTPEDTAVYYCADDYYWEMDSWGQGTQVTVSS” belongs “low polyreactivity”.

The record behind these values is the nanobody polyreactivity screen of Harvey et al. (2022).
